Measured values from article PMC3264624.

Assays:
Experiment in all cases: FRET or BRET; FLIM-FRET, Cerulean (donor) and mOrange (acceptor) fusions co-expressed in N. benthamiana leaves, two days post infiltration; Cerulean fluorescence lifetime, multiphoton excitation at 810 nm
[1] = molecular target: NFR1:Cerulean (Lotus japonicus) (UniProt Q70KR8)
[2] = molecular target: LjSYMREM1:mOrange (full length) (Lotus japonicus)
[3] = molecular target: LjSYMREM1C:mOrange (Lotus japonicus)

Chain of UniProt Q70KR8 (Q70KR8 entry or part of it): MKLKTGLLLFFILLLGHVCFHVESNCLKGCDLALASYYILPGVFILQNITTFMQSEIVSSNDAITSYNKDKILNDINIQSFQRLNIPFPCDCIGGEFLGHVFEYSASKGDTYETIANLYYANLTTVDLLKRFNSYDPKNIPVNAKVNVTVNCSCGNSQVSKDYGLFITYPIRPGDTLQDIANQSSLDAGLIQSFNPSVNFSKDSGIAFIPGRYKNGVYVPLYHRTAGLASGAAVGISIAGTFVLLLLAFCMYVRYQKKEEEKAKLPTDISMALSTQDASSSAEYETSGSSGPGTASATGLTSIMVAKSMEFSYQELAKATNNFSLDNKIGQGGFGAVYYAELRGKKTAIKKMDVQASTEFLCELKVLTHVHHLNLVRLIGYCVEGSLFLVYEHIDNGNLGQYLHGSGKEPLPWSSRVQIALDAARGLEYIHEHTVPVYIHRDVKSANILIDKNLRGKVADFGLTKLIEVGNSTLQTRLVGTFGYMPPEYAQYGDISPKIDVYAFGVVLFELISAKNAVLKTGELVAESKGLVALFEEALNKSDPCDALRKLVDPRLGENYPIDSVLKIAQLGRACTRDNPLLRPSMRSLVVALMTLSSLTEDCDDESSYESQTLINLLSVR

Cerulean fluorescence lifetime [1] [ns] | FRET efficiency [1] [%] | Cerulean fluorescence lifetime [2] [ns] | FRET efficiency [2] [%] | Cerulean fluorescence lifetime [3] [ns] | FRET efficiency [3] [%] | Substance
2.09 | 4.1 |  |  |  |  | LjSYMREM1N:mOrange (domain or fragment)
 |  | 1.99 | 8.8 | 1.97 | 9.6 | NFR1:Cerulean (from UniProt Q70KR8 1-621) (receptor)
